Assay results reported in the supplement of paper PMC7877785.
± gives the uncertainty stated by the source.

Assay: self-splicing fitness, log relative to wild type (ln ratio); higher = more splicing; Tetrahymena group I intron in knt gene, E. coli kanamycin selection, DiMSum; sequences stand for … in CUCUCU…GGAGGGAAAAGUUAUCAGGCAUGCACCUGGUAGCUAGUCUUUAAACCAAUAGAUUGCAUCGGUUUAAAAGGCAAGACCGUCAAAUUGCGGGAAAGGGGUCAACAGCCGUUCAGUACCAAGUCUCAGGGGAAACUUUGAGAUGGCCUUGCAAAGGGUAUGGUAAUAAGCUGACGGACAUGGUCCUAACCACGCAGCCAAGUCCUAAGUCAACAGAUCUUCUGUUGAUAUGGAUGCAGUUCACAGACUAAAUGUCGGUCGGGGAAGAUGUAUUCUUCUCAUAAGAUAUAGUCGGACCUCUCCUUAAUGGGAGCUAGCGGAUGAAGUGAUGCAACACUGGAGCCGCUGGGAACUAAUUUGUAUGCGAAAGUAUAUUGAUUAGUUUUGGAGUACUCGUGGUCG
Procedure, shortened: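 Six replicate transformations of E. coli BL21(DE3) with a pET-22b(+) library were grown overnight at 37°C or 30°C. The library randomised all eight P1ex-region intron nucleotides, the intron lying in the knt kanamycin-resistance gene, and plates were LB agar with or without 25 μg/mL kanamycin plus 100 μg/mL carbenicillin, 50 μM IPTG and 0.2% rhamnose. Pooled colonies were amplicon-sequenced on an Illumina HiSeq 2500, and fitness is the DiMSum error-weighted combination of wild-type-normalised replicate fold changes, kanamycin versus none.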

In the case of CUGCAGCAAUAUUACGAAGC, the “self-splicing fitness (ln)” value (30 °C) is reported as -2.78 ± 0.28 and the “self-splicing fitness (ln)” value (37 °C) is reported as -2.6 ± 0.28.

In the case of CUGCAGCAAUAUUACGACCG, the “self-splicing fitness (ln)” value (30 °C) is reported as 0.161 ± 0.088 and the “self-splicing fitness (ln)” value (37 °C) is reported as 0.198 ± 0.12.

With CUGCAGCAAUAUUACGAGCC the “self-splicing fitness (ln)” value (30 °C) was -2.9 ± 0.31.

With CUGCAGCAAUAUUACGAUAC the “self-splicing fitness (ln)” value (30 °C) was -2.99 ± 0.34.

With CUGCAGCAAUAUUACGAUAU the “self-splicing fitness (ln)” value (30 °C) was -3.64 ± 0.28 and the “self-splicing fitness (ln)” value (37 °C) was -2.41 ± 0.3.

With CUGCAGCAAUAUUACGAUGC the “self-splicing fitness (ln)” value (30 °C) was -3.13 ± 0.24 and the “self-splicing fitness (ln)” value (37 °C) was -1.92 ± 0.43.

With CUGCAGCAAUAUUACGCAGA the “self-splicing fitness (ln)” value (30 °C) was -2.32 ± 0.31 and the “self-splicing fitness (ln)” value (37 °C) was -2.97 ± 0.38.

With CUGCAGCAAUAUUACGCUAC the “self-splicing fitness (ln)” value (30 °C) was -4.2 ± 0.36 and the “self-splicing fitness (ln)” value (37 °C) was -2.17 ± 0.16.

With CUGCAGCAAUAUUACGCUCG the “self-splicing fitness (ln)” value (30 °C) was -2.3 ± 0.16 and the “self-splicing fitness (ln)” value (37 °C) was -0.671 ± 0.16.

With CUGCAGCAAUAUUACGGAAA the “self-splicing fitness (ln)” value (30 °C) was -2.27 ± 0.21 and the “self-splicing fitness (ln)” value (37 °C) was -1.56 ± 0.38.

For CUGCAGCAAUAUUACGGAGU, the “self-splicing fitness (ln)” value (30 °C) was -3.05 ± 0.14 and the “self-splicing fitness (ln)” value (37 °C) was -1.65 ± 0.13.

With CUGCAGCAAUAUUACGGAUC the “self-splicing fitness (ln)” value (37 °C) was -2.38 ± 0.21.

For CUGCAGCAAUAUUACGGCAG, the “self-splicing fitness (ln)” value (30 °C) was -2.63 ± 0.22 and the “self-splicing fitness (ln)” value (37 °C) was -2.27 ± 0.2.

With CUGCAGCAAUAUUACGGCUC the “self-splicing fitness (ln)” value (30 °C) was -2.57 ± 0.22 and the “self-splicing fitness (ln)” value (37 °C) was -2.96 ± 0.43.

In the case of CUGCAGCAAUAUUACGGGCA, the “self-splicing fitness (ln)” value (30 °C) is reported as -3.01 ± 0.17 and the “self-splicing fitness (ln)” value (37 °C) is reported as -1.06 ± 0.14.

In the case of CUGCAGCAAUAUUACGGGUU, the “self-splicing fitness (ln)” value (30 °C) is reported as -3.86 ± 0.17 and the “self-splicing fitness (ln)” value (37 °C) is reported as -2.74 ± 0.14.

For CUGCAGCAAUAUUACGUCAG, the “self-splicing fitness (ln)” value (30 °C) was -3.61 ± 0.28 and the “self-splicing fitness (ln)” value (37 °C) was -2.08 ± 0.21.

In the case of CUGCAGCAAUAUUACGUCAU, the “self-splicing fitness (ln)” value (30 °C) is reported as -2.86 ± 0.14 and the “self-splicing fitness (ln)” value (37 °C) is reported as -2.06 ± 0.13.

For CUGCAGCAAUAUUACGUCCG, the “self-splicing fitness (ln)” value (30 °C) was -0.43 ± 0.094 and the “self-splicing fitness (ln)” value (37 °C) was 0.136 ± 0.13.

In the case of CUGCAGCAAUAUUACGUCGU, the “self-splicing fitness (ln)” value (30 °C) is reported as -4.05 ± 0.25 and the “self-splicing fitness (ln)” value (37 °C) is reported as -3.44 ± 0.25.

In the case of CUGCAGCAAUAUUACGUGCU, the “self-splicing fitness (ln)” value (30 °C) is reported as -4.44 ± 0.23 and the “self-splicing fitness (ln)” value (37 °C) is reported as -2.54 ± 0.19.

For CUGCAGCAAUAUUACGUUCU, the “self-splicing fitness (ln)” value (30 °C) was -2.88 ± 0.21 and the “self-splicing fitness (ln)” value (37 °C) was -1.88 ± 0.2.

In the case of CUGCAGCAAUAUUACGUUUA, the “self-splicing fitness (ln)” value (30 °C) is reported as -2.64 ± 0.19 and the “self-splicing fitness (ln)” value (37 °C) is reported as -1.21 ± 0.19.

In the case of CUGGAGCAAUAUUACGAAUA, the “self-splicing fitness (ln)” value (30 °C) is reported as -3.07 ± 0.4 and the “self-splicing fitness (ln)” value (37 °C) is reported as -2.15 ± 0.47.

In the case of CUGGAGCAAUAUUACGACCA, the “self-splicing fitness (ln)” value (30 °C) is reported as -1.68 ± 0.31 and the “self-splicing fitness (ln)” value (37 °C) is reported as -1.61 ± 0.38.

For CUGGAGCAAUAUUACGAGCU, the “self-splicing fitness (ln)” value (37 °C) was -1.66 ± 0.46.

With CUGGAGCAAUAUUACGAGGA the “self-splicing fitness (ln)” value (30 °C) was -3.18 ± 0.33.

For CUGGAGCAAUAUUACGAUAG, the “self-splicing fitness (ln)” value (30 °C) was -2.16 ± 0.25 and the “self-splicing fitness (ln)” value (37 °C) was -1.38 ± 0.22.

With CUGGAGCAAUAUUACGCAUA the “self-splicing fitness (ln)” value (37 °C) was -2.22 ± 0.37.

In the case of CUGGAGCAAUAUUACGCCUA, the “self-splicing fitness (ln)” value (30 °C) is reported as -1.84 ± 0.36 and the “self-splicing fitness (ln)” value (37 °C) is reported as -1.44 ± 0.32.

For CUGGAGCAAUAUUACGCCUG, the “self-splicing fitness (ln)” value (30 °C) was -1.22 ± 0.22 and the “self-splicing fitness (ln)” value (37 °C) was -1.39 ± 0.28.

With CUGGAGCAAUAUUACGCGAC the “self-splicing fitness (ln)” value (30 °C) was -0.944 ± 0.27 and the “self-splicing fitness (ln)” value (37 °C) was -1.84 ± 0.36.

With CUGGAGCAAUAUUACGCUUG the “self-splicing fitness (ln)” value (30 °C) was -3.94 ± 0.34 and the “self-splicing fitness (ln)” value (37 °C) was -2.35 ± 0.45.

In the case of CUGGAGCAAUAUUACGGAAA, the “self-splicing fitness (ln)” value (30 °C) is reported as -2.47 ± 0.33 and the “self-splicing fitness (ln)” value (37 °C) is reported as -2.78 ± 0.35.

For CUGGAGCAAUAUUACGGACA, the “self-splicing fitness (ln)” value (30 °C) was -3.7 ± 0.43 and the “self-splicing fitness (ln)” value (37 °C) was -2.45 ± 0.46.

With CUGGAGCAAUAUUACGGCCA the “self-splicing fitness (ln)” value (37 °C) was -1.99 ± 0.24.

For CUGGAGCAAUAUUACGGGAA, the “self-splicing fitness (ln)” value (30 °C) was -2.68 ± 0.31 and the “self-splicing fitness (ln)” value (37 °C) was -2.36 ± 0.27.

In the case of CUGGAGCAAUAUUACGGGAU, the “self-splicing fitness (ln)” value (30 °C) is reported as -4.01 ± 0.37 and the “self-splicing fitness (ln)” value (37 °C) is reported as -1.91 ± 0.28.

In the case of CUGGAGCAAUAUUACGUGAG, the “self-splicing fitness (ln)” value (30 °C) is reported as -0.772 ± 0.049 and the “self-splicing fitness (ln)” value (37 °C) is reported as -0.213 ± 0.063.

In the case of CUGGAGCAAUAUUACGUGGG, the “self-splicing fitness (ln)” value (30 °C) is reported as -3.7 ± 0.2 and the “self-splicing fitness (ln)” value (37 °C) is reported as -2.52 ± 0.26.

In the case of CUGGAGCAAUAUUACGUGUA, the “self-splicing fitness (ln)” value (30 °C) is reported as -3.32 ± 0.32 and the “self-splicing fitness (ln)” value (37 °C) is reported as -1.57 ± 0.37.

For CUGGAGCAAUAUUACGUGUG, the “self-splicing fitness (ln)” value (30 °C) was -1.53 ± 0.11 and the “self-splicing fitness (ln)” value (37 °C) was -0.75 ± 0.13.

With CUGGAGCAAUAUUACGUGUU the “self-splicing fitness (ln)” value (30 °C) was -3.3 ± 0.16 and the “self-splicing fitness (ln)” value (37 °C) was -3.31 ± 0.21.

With CUGUAGCAAUAUUACGACAA the “self-splicing fitness (ln)” value (30 °C) was -0.568 ± 0.11 and the “self-splicing fitness (ln)” value (37 °C) was 0.0313 ± 0.11.

With CUGUAGCAAUAUUACGACCA the “self-splicing fitness (ln)” value (30 °C) was -1.45 ± 0.38.

In the case of CUGUAGCAAUAUUACGACUA, the “self-splicing fitness (ln)” value (30 °C) is reported as -1.74 ± 0.42 and the “self-splicing fitness (ln)” value (37 °C) is reported as -0.817 ± 0.3.

With CUGUAGCAAUAUUACGAGGC the “self-splicing fitness (ln)” value (30 °C) was -3.31 ± 0.37 and the “self-splicing fitness (ln)” value (37 °C) was -3.04 ± 0.32.

With CUGUAGCAAUAUUACGAGUC the “self-splicing fitness (ln)” value (37 °C) was -2.05 ± 0.31.

In the case of CUGUAGCAAUAUUACGAUUU, the “self-splicing fitness (ln)” value (37 °C) is reported as -2.62 ± 0.36.

With CUGUAGCAAUAUUACGCACA the “self-splicing fitness (ln)” value (30 °C) was -2.05 ± 0.13 and the “self-splicing fitness (ln)” value (37 °C) was -1.19 ± 0.16.

In the case of CUGUAGCAAUAUUACGCGAG, the “self-splicing fitness (ln)” value (30 °C) is reported as -3.06 ± 0.29 and the “self-splicing fitness (ln)” value (37 °C) is reported as -2.13 ± 0.25.
